Measured values from patent US20180064808A1 (Hoffmann-La Roche, published 2018).
One block for each binder: values may come before it.

Legend:
murine FAP = target: T1, murine FAP (murine, UniProt P97321 27-761); test: SPR (Biacore), simultaneous binding
T1 construct: also called mouse FAP

[1] = target: T2, human Fibroblast Activation Protein (FAP) (human, UniProt Q12884 27-760); test: SPR (Biacore), simultaneous binding
T2 construct: also called recombinant human FAP; Seprase

[2] = target: T2, human Fibroblast Activation Protein …; test: Affinity human [nM], IgG format; method not stated

T2 sequence (Q12884 27-760 limits assumed): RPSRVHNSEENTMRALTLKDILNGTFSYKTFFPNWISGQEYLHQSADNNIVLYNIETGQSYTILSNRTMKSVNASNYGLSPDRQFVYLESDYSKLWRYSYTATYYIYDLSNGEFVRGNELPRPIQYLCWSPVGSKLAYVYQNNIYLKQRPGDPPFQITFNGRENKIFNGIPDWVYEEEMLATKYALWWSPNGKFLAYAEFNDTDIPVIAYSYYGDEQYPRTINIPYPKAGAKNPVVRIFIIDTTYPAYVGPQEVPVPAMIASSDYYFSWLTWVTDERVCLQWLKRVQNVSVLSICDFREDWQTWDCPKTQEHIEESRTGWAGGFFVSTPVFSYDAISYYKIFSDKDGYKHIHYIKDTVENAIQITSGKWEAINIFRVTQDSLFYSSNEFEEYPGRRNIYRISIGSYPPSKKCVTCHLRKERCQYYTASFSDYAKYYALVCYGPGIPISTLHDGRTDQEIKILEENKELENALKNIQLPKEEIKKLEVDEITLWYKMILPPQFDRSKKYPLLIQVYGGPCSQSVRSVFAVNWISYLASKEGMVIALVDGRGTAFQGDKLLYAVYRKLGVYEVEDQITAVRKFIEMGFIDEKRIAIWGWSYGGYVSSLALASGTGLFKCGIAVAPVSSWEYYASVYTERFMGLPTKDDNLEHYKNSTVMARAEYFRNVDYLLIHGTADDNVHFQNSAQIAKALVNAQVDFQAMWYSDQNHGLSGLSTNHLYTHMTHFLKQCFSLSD
T1 sequence (P97321 27-761 limits assumed): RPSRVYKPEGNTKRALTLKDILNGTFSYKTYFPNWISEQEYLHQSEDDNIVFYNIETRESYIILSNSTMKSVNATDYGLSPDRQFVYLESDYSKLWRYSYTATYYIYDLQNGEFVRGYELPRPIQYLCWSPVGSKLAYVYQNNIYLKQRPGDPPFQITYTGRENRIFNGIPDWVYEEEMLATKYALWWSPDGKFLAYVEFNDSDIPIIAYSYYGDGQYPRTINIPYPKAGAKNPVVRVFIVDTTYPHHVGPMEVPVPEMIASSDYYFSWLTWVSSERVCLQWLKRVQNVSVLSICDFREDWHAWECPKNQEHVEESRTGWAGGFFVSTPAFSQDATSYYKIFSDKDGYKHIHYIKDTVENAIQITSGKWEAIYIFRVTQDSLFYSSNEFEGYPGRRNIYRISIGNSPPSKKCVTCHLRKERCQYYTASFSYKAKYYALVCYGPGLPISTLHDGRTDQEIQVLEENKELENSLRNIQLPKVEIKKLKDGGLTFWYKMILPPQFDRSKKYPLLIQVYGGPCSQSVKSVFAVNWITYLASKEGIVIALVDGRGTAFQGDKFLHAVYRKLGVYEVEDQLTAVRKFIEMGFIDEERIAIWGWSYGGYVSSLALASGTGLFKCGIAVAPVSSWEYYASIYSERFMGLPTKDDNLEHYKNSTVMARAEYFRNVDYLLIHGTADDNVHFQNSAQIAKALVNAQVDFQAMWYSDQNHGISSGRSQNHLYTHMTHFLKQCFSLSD

- binding result (murine FAP): binds
- binding result [1]: binds
B1: DR5(5E11)-28H1 VHCL 2+2 (bispecific antibody, human IgG1, kappa)
heavy: not shown
light: EIVLTQSPGTLSLSPGERATLSCRASQSVSSSYLAWYQQKPGQAPRLLIYGASSRATGIPDRFSGSGSGTDFTLTISRLEPEDFAVYYCQQGTTHPITFGQGTKVEIKRTVAAPSVFIFPPSDEQLKSGTASVVCLLNNFYPREAKVQWKVDNALQSGNSQESVTEQDSKDSTYSLSSTLTLSKADYEKHKVYACEVTHQGLSSPVTKSFNRGEC
chain: EIVLTQSPGTLSLSPGERATLSCRASQSVSRSYLAWYQQKPGQAPRLLIIGASTRATGIPDRFSGSGSGTDFTLTISRLEPEDFAVYYCQQGQVIPPTFGQGTKVEIKSSASTKGPSVFPLAPSSKSTSGGTAALGCLVKDYFPEPVTVSWNSGALTSGVHTFPAVLQSSGLYSLSSVVTVPSSSLGTQTYICNVNHKPSNTKVDKKVEPKSCD
notes: 28H1 CrossFab domain (VHCL) fused to the C-terminus of the anti-DR5 (5E11) heavy chain by a (G4S)4 connector; also called DR5-FAP bispecific antibody; bispecific, tetravalent DR5-FAP CrossMab molecule

- binding result (murine FAP): binds
- binding result [1]: binds
B2: DR5(5E11)-28H1 VHCL 2+2 P329GLALA (bispecific antibody, human IgG1, kappa, L234A L235A)
heavy: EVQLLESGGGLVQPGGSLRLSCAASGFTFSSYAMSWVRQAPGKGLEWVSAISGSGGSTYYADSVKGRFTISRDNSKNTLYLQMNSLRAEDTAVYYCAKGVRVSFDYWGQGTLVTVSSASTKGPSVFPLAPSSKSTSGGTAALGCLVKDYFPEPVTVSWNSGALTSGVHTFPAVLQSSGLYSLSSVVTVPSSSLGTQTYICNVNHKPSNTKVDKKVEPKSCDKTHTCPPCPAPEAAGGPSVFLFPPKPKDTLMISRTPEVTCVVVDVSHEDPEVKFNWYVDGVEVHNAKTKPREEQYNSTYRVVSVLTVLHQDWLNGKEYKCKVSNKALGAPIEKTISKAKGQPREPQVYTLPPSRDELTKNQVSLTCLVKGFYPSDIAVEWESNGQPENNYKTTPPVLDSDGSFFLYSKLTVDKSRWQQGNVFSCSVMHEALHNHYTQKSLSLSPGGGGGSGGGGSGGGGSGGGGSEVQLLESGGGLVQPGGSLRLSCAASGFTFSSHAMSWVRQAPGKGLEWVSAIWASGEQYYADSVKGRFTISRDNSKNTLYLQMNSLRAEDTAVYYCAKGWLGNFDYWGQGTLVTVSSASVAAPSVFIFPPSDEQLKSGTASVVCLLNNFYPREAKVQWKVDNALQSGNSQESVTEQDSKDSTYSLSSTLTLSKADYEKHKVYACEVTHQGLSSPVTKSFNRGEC
light: B1 light
chain: B1 chain
notes: As DR5(5E11)-28H1 VHCL 2+2, with removal of the C-terminal lysine and the P329G/LALA mutation in Fc; also called DR5-FAP bispecific antibody; bispecific, tetravalent DR5-FAP CrossMab molecule

- Kd [2]: 2.6 nM
B3: FAP binder 28H1 (IgG) (antibody, V domains shown)
VH: EVQLLESGGGLVQPGGSLRLSCAASGFTFSSHAMSWVRQAPGKGLEWVSAIWASGEQYYADSVKGRFTISRDNSKNTLYLQMNSLRAEDTAVYYCAKGWLGNFDYWGQGTLVTVSS
VL: EIVLTQSPGTLSLSPGERATLSCRASQSVSRSYLAWYQQKPGQAPRLLIIGASTRATGIPDRFSGSGSGTDFTLTISRLEPEDFAVYYCQQGQVIPPTFGQGTKVEIK
notes: also called FAP(28H1)
